Measurements reported in patent US20180258407.

Assays:
[1] = system: flag tagged HDAC4 (overexpressed in neonatal rat cardiomyocytes)
[2] = system: HDAC4 expressed in Saccharomyces cerevisiae from a constitutively active promoter (pNOP)

Substance	HDAC4 cleavage, immunoblot [1]	cleavage of HDAC4 in Saccharomyces cerevisiae, westernblot analysis [2]
gfp tagged abhd5 (adenoviral overexpression in neonatal rat ventricular myocytes)	Overexpressed flag tagged HDAC4 was cleaved whenever gfp tagged abhd5 was coexpressed.	
ABHD5 expressed in Saccharomyces cerevisiae from a Galactose inducible promoter (pGAL)		By overexpression either together or with backbone vector in Saccharomyces cerevisiae we found cleavage of HDAC4, confirmed by westernblot analysis.
